Experimental data reported in patent US20040071698A1 (UAB RESEARCH FOUNDATION, published 2004).

Columns and labels:
[1] = molecular target: T1, wild-type EGFR on U87MG.wtEGFR human glioma cells (UniProt P00533 25-1210, limits assumed); assay: FACS on U87MG.wtEGFR cells, culture medium, anti-alpha tubulin and FITC anti-rat detection
T1 construct: whole, on cells; Estimated at >3x10^6 EGFR per cell; also called native full length epidermal growth factor receptor
Protocol: (§1) The cells, U87MG, U87MG.wtEGFR and U87MG.AEGFR were incubated with culture medium, culture medium from pSECTAG or p6.34 for 30 min at 4° C. The cells were washed, then incubated with rat anti-alpha tubulin followed by FITC-labeled anti-rat antibody.
(§2) The EGFR has three major domains, intracellular, transmembrane and extracellular, any of which may serve as the binding site for clone p6.34. To examine whether the scFv binds to the extracellular portion of the receptor, a FACS analysis was used for this determination. For this assay, culture medium collected from U87MG.pSECTAG or U87MG.pSECTAG.6.34.A8 was allowed to interact with the cell surface of 3 different human glioma sublines; U87MG, U87MG.wtEGFR and U87MG.AEGFR (provided by Dr. H-J. Su Huang, UCSD).

[2] = molecular target: T2, truncated EGFR, EGFRvIII, on U87MG.deltaEGFR human glioma cells (UniProt P00533 25-1210); assay: FACS on U87MG.deltaEGFR cells, culture medium, anti-alpha tubulin and FITC anti-rat detection
T2 construct: whole, on cells; also called U87MG.AEGFR; truncated and/or mutated epidermal growth factor receptor
Protocol: as §1, §2

B1: secretory anti-EGFR scFv clone 6 secreted by stably transfected U87MG.6.34.A8 cells (clone p6.34) (scFv, not shown: small tags and cut ends)
scFv: EVQLVESGGGLVQPGGSLRLSCSASGFTFSSYAMHWVRQAPGKGLEYVSAISSNGGSTYYADSVKGRFTISRDNSKNTLYLQMSSLRAEDTAVYYCVKDVGGSSWYWADYFDYWGQGTLVTVSSGSASAPKLEEGEFSEARVQSVLTQPPSLSVSPGQTASITCSGDKLGDKYASWYQQKPGQSPVLVIYQDRKRPSGIPERFSGSNSGNTATLTISGTQAMDEADYYCQAWDSSTPYVFGTGTKVTVLGQPKANPTVTLFPPSSAAA
notes: The scFv insert was moved from pSEX81 as a Bpu1102I/NotI fragment behind an Ig kappa leader; also called scFv p6.34; clone p6.34 scFv
- binding result [1]: binds
- binding result [2]: binds
